Results published in article doi:10.1101/116178.

Target: RFP-p62 (UniProt Q13501)
Assay: co-IP

fold binding against cleavable mHTT: 2 fold
Substance: mHTT aa1-1212 138Q-C6R (domain or fragment)
